# B1: CF-301: anti-staphylococcal lysin encoded within a prophage of the Streptococcus suis genome, SEQ ID NO: 2 with or without initial methionine (protein, listed as Streptococcus suis)
# chain: MTTVNEALNNVRAQVGSGVSVGNGECYALASWYERMISPDATVGLGAGVGWVSGAIGDTISAKNIGSSYNWQANGWTVSTSGPFKAGQIVTLGATPGNPYGHVVIVEAVDGDRLTILEQNYGGKRYPVRNYYSAASYRQQVVHYITPPGTVAQSAPNLAGSRSYRETGTMTVTVDALNVRRAPNTSGEIVAVYKRGESFDYDTVIIDVNGYVWVSYIGGSGKRNYVATGATKDGKRFGNAWGTFK
# Tests used:
# S. lugdunensis = assay: MIC by broth microdilution; type: cell-based, Staphylococcus lugdunensis; conditions: S. lugdunensis, N=49
# Method: (§1) Minimal inhibitory concentrations (MICs) of exebacase against staphylococci were determined by broth microdilution (BMD) using a nonstandard antimicrobial susceptibility testing (AST) medium comprised of cation-adjusted Mueller Hinton broth (caMHB) supplemented with horse serum (Sigma Aldrich) and dithiothreitol (DTT; Sigma Aldrich) to final concentrations of 25% and 0.5 mM, respectively. This medium, referred to as caMHB-HSD, is approved for use in exebacase AST by the Clinical and Laboratory Standards Institute (CLSI) (CLSI. 2017, Jan. 16-17. AST Subcommittee Working Group Meetings and Plenary. AST Meeting Files & Resources, clsi.org/education/microbiology/ast/ast-meeting-files-resources/. Additional supplementation with 2.5% lysed red blood cells (Remel™, ThermoFisher) was included for analyses of streptococcal isolates, as recommended by CLSI. See CLSI, 2015. Methods for Dilution Antimicrobial Susceptibility Tests for Bacteria That Grow Aerobically, 10th Edition. Clinical and Laboratory Standards Institute, Wayne, Pa.
# (§2) Daptomycin (Sigma Aldrich) and vancomycin hydrochloride (Sigma Aldrich) were tested following the reference BMD method for each. See CLSI. 2015. Methods for Dilution Antimicrobial Susceptibility Tests for Bacteria That Grow Aerobically, 10th Edition. Clinical and Laboratory Standards Institute, Wayne, Pa.
# S. dysgalactiae = assay: MIC by broth microdilution; type: cell-based, Streptococcus dysgalactiae; conditions: S. dysgalactiae (group G), N=22
# Method: as §1, §2
# [1] = system: MRSA strain MW2 (CA-MRSA; USA400); conditions: cited from earlier work
# S. capitis = assay: MIC by broth microdilution; type: cell-based, Staphylococcus capitis; conditions: S. capitis, N=13
# Method: as §1, §2
# S. pneumoniae = assay: MIC by broth microdilution; type: cell-based, Streptococcus pneumoniae; conditions: S. pneumoniae, N=59
# Method: as §1, §2
# S. sanguinis = assay: MIC by broth microdilution; type: cell-based, Streptococcus sanguinis; conditions: S. sanguinis (viridans), N=15
# Method: as §1, §2
# E. faecalis = assay: MIC by broth microdilution; type: cell-based, Enterococcus faecalis; conditions: E. faecalis (formerly group D), N=18
# Method: as §1, §2
# S. pyogenes = assay: MIC by broth microdilution; type: cell-based, Streptococcus pyogenes; conditions: S. pyogenes (group A), N=100
# Method: as §1, §2
# S. gordonii = assay: MIC by broth microdilution; type: cell-based, Streptococcus gordonii; conditions: S. gordonii (viridans), N=11
# Method: as §1, §2
# S. mutans = assay: MIC by broth microdilution; type: cell-based, Streptococcus mutans; conditions: S. mutans (viridans), N=22
# Method: as §1, §2
# S. warneri = assay: MIC by broth microdilution; type: cell-based, Staphylococcus warneri; conditions: S. warneri, N=23
# Method: as §1, §2
# S. salivarius = assay: MIC by broth microdilution; type: cell-based, Streptococcus salivarius; conditions: S. salivarius (viridans), N=12
# Method: as §1, §2
# S. haemolyticus = assay: MIC by broth microdilution; type: cell-based, Staphylococcus haemolyticus; conditions: S. haemolyticus, N=36
# Method: as §1, §2
# S. oralis = assay: MIC by broth microdilution; type: cell-based, Streptococcus oralis; conditions: S. oralis (viridans), N=15
# Method: as §1, §2
# MRSA strain MW2 = assay: Infective endocarditis rabbit model, CF-301 in series with daptomycin (Example 2); type: in vivo, rabbits
# Method: The rational for selection of the daptomycin dose is as follows. Daptomycin pilot dose-response experiments were performed over a range from 1 mg/kg to 10 mg/kg, administered intravenously, once daily for 4 days in the infective endocarditis rabbit model described below, which was caused by the MRSA strain, MW2. FIG. 2 depicts data for individual animals, plotted as treatment regimen versus log10 CFU/g tissue (mean±SEM are shown). From these studies, a daptomycin dose-response was defined. […] In the rabbit infective endocarditis model, a daptomycin-alone dose of 4 mg/kg administered intravenously provided about 0.25 to 1.45 log10 reduction in bacterial burden compared to vehicle-treated controls.
# A well-described indwelling transcarotid artery-to-left ventricle catheter-induced model of aortic valve infective endocarditis was used in rabbits. See Xiong et al., 2011, AAC, 55:P5325-5330. At 48 hours after catheter placement, infective endocarditis was induced by intravenous inoculums of about 2×10^5 CFU (the induction of ID95 of MRSA strain MW2 in this model). […] Daptomycin administration was continued once a day for 4 days. At 24 hours after the last dose of daptomycin, animals were humanely euthanized and cardiac vegetations, kidneys, and spleens were sterilely removed and quantitatively cultured. Bacterial density for each organ for the different treatment groups were calculated as mean log10 CFU/g of tissue (±95% confidence interval).
# S. agalactiae = assay: MIC by broth microdilution; type: cell-based, Streptococcus agalactiae; conditions: S. agalactiae (group B), N=97
# Method: as §1, §2
# S. gallolyticus = assay: MIC by broth microdilution; type: cell-based, Streptococcus gallolyticus; conditions: S. gallolyticus (bovis), N=19
# Method: as §1, §2
# [2] = CF-301 0.09 mg/kg 1 hour prior to the initial dose of DAP 4 mg/kg IV QD x 4 days
# [3] = CF-301 0.09 mg/kg 2 hours after the initial dose of DAP 4 mg/kg IV QD x 4 days
# [4] = CF-301 0.09 mg/kg 2 hours prior to the initial dose of DAP 4 mg/kg IV QD x 4 days
# [5] = CF-301 0.09 mg/kg 4 hours after the initial dose of DAP 4 mg/kg IV QD x 4 days
# [6] = CF-301 0.09 mg/kg 4 hours prior to the initial dose of DAP 4 mg/kg IV QD x 4 days
# [7] = CF-301 0.09 mg/kg immediately after the initial dose of DAP 4 mg/kg IV QD x 4 days
molecule,measurement,setting,value
B1,MIC50,S. lugdunensis,1 µg/mL
same,MIC90,S. lugdunensis,1 µg/mL
same,MIC Range,S. lugdunensis,0.25 to 2 µg/mL
same,MIC50,S. dysgalactiae,1 µg/mL
same,MIC90,S. dysgalactiae,2 µg/mL
same,MIC Range,S. dysgalactiae,1 to 2 µg/mL
same,MIC,[1],1.0 µg/mL
same,MIC50,S. capitis,1 µg/mL
same,MIC90,S. capitis,2 µg/mL
same,MIC Range,S. capitis,0.25 to 4 µg/mL
same,MIC50,S. pneumoniae,4 µg/mL
same,MIC90,S. pneumoniae,32 µg/mL
same,MIC Range,S. pneumoniae,1 to 64 µg/mL
same,MIC50,S. sanguinis,4 µg/mL
same,MIC90,S. sanguinis,16 µg/mL
same,MIC Range,S. sanguinis,2 to 32 µg/mL
same,MIC50,E. faecalis,16 µg/mL
same,MIC90,E. faecalis,64 µg/mL
same,MIC Range,E. faecalis,1 to 256 µg/mL
same,MIC50,S. pyogenes,1 µg/mL
same,MIC90,S. pyogenes,2 µg/mL
same,MIC Range,S. pyogenes,0.5 to 4 µg/mL
same,MIC50,S. gordonii,4 µg/mL
same,MIC90,S. gordonii,8 µg/mL
same,MIC Range,S. gordonii,0.5 to 8 µg/mL
same,MIC50,S. mutans,32 µg/mL
same,MIC90,S. mutans,64 µg/mL
same,MIC50,S. warneri,0.5 µg/mL
same,MIC90,S. warneri,1 µg/mL
same,MIC Range,S. warneri,0.06 to 1 µg/mL
same,MIC50,S. salivarius,2 µg/mL
same,MIC90,S. salivarius,8 µg/mL
same,MIC Range,S. salivarius,0.5 to 8 µg/mL
same,MIC50,S. haemolyticus,0.5 µg/mL
same,MIC90,S. haemolyticus,1 µg/mL
same,MIC Range,S. haemolyticus,0.25 to 2 µg/mL
same,MIC50,S. oralis,4 µg/mL
same,MIC90,S. oralis,64 µg/mL
same,MIC Range,S. oralis,0.5 to 64 µg/mL
same,"MRSA density, Mean Log10 CFU/g tissue ± STD, Kidneys",MRSA strain MW2; [2],3.53 ± 0.59 Log10 CFU/g tissue
same,"MRSA density, Mean Log10 CFU/g tissue ± STD, Spleen",MRSA strain MW2; [2],3.55 ± 0.74 Log10 CFU/g tissue
same,"MRSA density, Mean Log10 CFU/g tissue ± STD, Vegetation",MRSA strain MW2; [2],4.16 ± 0.82 Log10 CFU/g tissue
same,"MRSA density, Mean Log10 CFU/g tissue ± STD, Kidneys",MRSA strain MW2; [3],2.29 ± 0.87 Log10 CFU/g tissue
same,"MRSA density, Mean Log10 CFU/g tissue ± STD, Spleen",MRSA strain MW2; [3],2.23 ± 1.09 Log10 CFU/g tissue
same,"MRSA density, Mean Log10 CFU/g tissue ± STD, Vegetation",MRSA strain MW2; [3],2.25 ± 1.39 Log10 CFU/g tissue
same,"MRSA density, Mean Log10 CFU/g tissue ± STD, Kidneys",MRSA strain MW2; [4],3.48 ± 0.47 Log10 CFU/g tissue
same,"MRSA density, Mean Log10 CFU/g tissue ± STD, Spleen",MRSA strain MW2; [4],3.31 ± 0.57 Log10 CFU/g tissue
same,"MRSA density, Mean Log10 CFU/g tissue ± STD, Vegetation",MRSA strain MW2; [4],3.54 ± 0.68 Log10 CFU/g tissue
same,"MRSA density, Mean Log10 CFU/g tissue ± STD, Kidneys",MRSA strain MW2; [5],3.78 ± 0.51 Log10 CFU/g tissue
same,"MRSA density, Mean Log10 CFU/g tissue ± STD, Spleen",MRSA strain MW2; [5],3.49 ± 0.33 Log10 CFU/g tissue
same,"MRSA density, Mean Log10 CFU/g tissue ± STD, Vegetation",MRSA strain MW2; [5],4.31 ± 0.89 Log10 CFU/g tissue
same,"MRSA density, Mean Log10 CFU/g tissue ± STD, Kidneys",MRSA strain MW2; [6],2.97 ± 0.32 Log10 CFU/g tissue
same,"MRSA density, Mean Log10 CFU/g tissue ± STD, Spleen",MRSA strain MW2; [6],3.18 ± 0.35 Log10 CFU/g tissue
same,"MRSA density, Mean Log10 CFU/g tissue ± STD, Vegetation",MRSA strain MW2; [6],3.45 ± 0.63 Log10 CFU/g tissue
same,"MRSA density, Mean Log10 CFU/g tissue ± STD, Kidneys",MRSA strain MW2; [7],2.77 ± 0.65 Log10 CFU/g tissue
same,"MRSA density, Mean Log10 CFU/g tissue ± STD, Spleen",MRSA strain MW2; [7],2.60 ± 0.17 Log10 CFU/g tissue
same,"MRSA density, Mean Log10 CFU/g tissue ± STD, Vegetation",MRSA strain MW2; [7],3.23 ± 0.36 Log10 CFU/g tissue
same,MRSA densities in all three target tissues as compared to the controls and daptomycin alone,"MRSA strain MW2; single dose of CF-301 added to daptomycin regimen, all time-points tested",significantly reduced
same,MIC50,S. agalactiae,1 µg/mL
same,MIC90,S. agalactiae,2 µg/mL
same,MIC Range,S. agalactiae,0.25 to 4 µg/mL
same,MIC50,S. gallolyticus,64 µg/mL
same,MIC90,S. gallolyticus,>512 µg/mL
